Positions count from the first letter of the chain named.
Tests used:
Test in all cases: SPR, antibody captured, C2 as analyte;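 also: biacore SPR at 37 °C, anti-C2 mAbs captured via goat anti-human IgG on CM5 chips, double-referenced sensorgrams fit to a 1:1 kinetic or steady-state model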
human C2 I272A = biological target: T1, human C2 I272A (human, UniProt P06681 21-752)
T1 sequence: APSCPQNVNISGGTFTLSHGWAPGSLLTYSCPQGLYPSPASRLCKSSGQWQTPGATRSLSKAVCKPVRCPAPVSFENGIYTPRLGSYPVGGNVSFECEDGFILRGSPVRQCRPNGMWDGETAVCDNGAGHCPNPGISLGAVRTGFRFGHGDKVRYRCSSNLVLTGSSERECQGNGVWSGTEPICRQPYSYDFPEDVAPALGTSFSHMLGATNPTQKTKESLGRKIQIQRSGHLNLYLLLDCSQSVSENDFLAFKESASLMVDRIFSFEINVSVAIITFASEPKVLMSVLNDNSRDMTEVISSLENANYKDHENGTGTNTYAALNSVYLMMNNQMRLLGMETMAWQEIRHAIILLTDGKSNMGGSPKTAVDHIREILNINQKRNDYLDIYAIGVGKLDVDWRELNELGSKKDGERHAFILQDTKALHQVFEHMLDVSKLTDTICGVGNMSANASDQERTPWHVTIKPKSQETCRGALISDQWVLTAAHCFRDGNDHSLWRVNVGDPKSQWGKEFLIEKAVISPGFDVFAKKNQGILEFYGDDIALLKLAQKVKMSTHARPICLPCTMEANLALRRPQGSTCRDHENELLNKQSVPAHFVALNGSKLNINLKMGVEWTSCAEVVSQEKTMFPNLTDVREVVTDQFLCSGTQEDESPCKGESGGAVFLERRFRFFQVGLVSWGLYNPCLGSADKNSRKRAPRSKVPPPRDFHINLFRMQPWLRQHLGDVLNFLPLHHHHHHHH

human C2 K430A = biological target: T2, human C2 K430A (human, UniProt P06681 21-752)
T2 sequence: T1 sequence with A252I, K410A

human C2 K550A = biological target: T3, human C2 K550A (human, UniProt P06681 21-752)
T3 sequence: T1 sequence with A252I, K530A

human C2 E556A = biological target: T4, human C2 E556A (human, UniProt P06681 21-752)
T4 sequence: T1 sequence with A252I, E536A

B1: RF16-226 (antibody, human IgG4 S228P, lambda)
heavy: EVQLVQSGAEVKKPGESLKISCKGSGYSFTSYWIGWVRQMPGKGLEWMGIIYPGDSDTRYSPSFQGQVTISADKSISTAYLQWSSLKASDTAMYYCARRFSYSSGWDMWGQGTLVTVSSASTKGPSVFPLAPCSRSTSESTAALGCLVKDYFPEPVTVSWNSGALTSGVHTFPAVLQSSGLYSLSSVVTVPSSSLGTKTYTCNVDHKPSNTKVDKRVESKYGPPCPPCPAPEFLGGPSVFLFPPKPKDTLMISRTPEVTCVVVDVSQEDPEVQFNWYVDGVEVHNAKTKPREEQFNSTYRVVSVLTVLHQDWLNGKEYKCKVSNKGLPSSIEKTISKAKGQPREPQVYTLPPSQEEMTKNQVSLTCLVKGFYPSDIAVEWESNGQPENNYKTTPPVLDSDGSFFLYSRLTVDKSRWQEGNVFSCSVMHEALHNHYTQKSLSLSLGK
light: SYELTQPPSVSVSPGQTARITCSGDALTSKYVAWYQQKSGLAPLLVIYEDTRRPSGIPAKFSGSSSGSVATLTISGAHGDDEADYYCYSTDASGHQRVFGGGTKLTVLSQPKAAPSVTLFPPSSEELQANKATLVCLISDFYPGAVTVAWKADGSPVKAGVETTKPSKQSNNKYAASSYLSLTPEQWKSHRSYSCQVTHEGSTVEKTVAPTECS
notes: pH-dependent anti-C2 antibody from a phage display library; also called WT
B1 was tested, and the Kd (human C2 I272A) was 10.4 nM, the Kd (human C2 K430A) was 62 nM and the Kd (human C2 K550A) was 15 nM. For the same binder, the Kd (human C2 E556A) was 5.9 nM.
